Measurements as given in the Human Domainome abundance scans (Beltran et al. 2025).
± gives the uncertainty stated by the source.

B1: Peripheral plasma membrane protein CASK, residues 488 to 569; numbered along this chain, O14936 (parent)
chain: VRLVQFQKNTDEPMGITLKMNELNHCIVARIMHGGMIHRQGTLHVGDEIREINGISVANQTVEQLQKMLREMRGSITFKIVP

Variants of: B1
Assay: abundance fitness (aPCA) (normalised: wild type 0, dead -1); higher = more abundant; growth selection in yeast, the domain comes from the species named
Conditions: Homo sapiens

Variant	abundance fitness
VRLVQFQKNTDEPMGITLKMNELNHCIVARIMHGGMIHRQGTLHVGDEIREIAGISVANQTVEQLQKMLREMRGSITFKIVP	-0.308 ± 0.041
VRLVQFQKNTDEPMGITLKMNELNHCIVARIMHGGMIHRQGTLHVGDEIREINGISVANQTVEQLQKMLREMRGSITFKNVP	-0.836 ± 0.14
VRLVQFQKNTDEPMGITLKMNELNHCIVARIMHGGMIHRQGTLHVGDEIREINGISVANQTVENLQKMLREMRGSITFKIVP	-0.025 ± 0.043
VRLVQFQKNTDEPMGITLKMNELNHCIVARIMHGGMIHRMGTLHVGDEIREINGISVANQTVEQLQKMLREMRGSITFKIVP	-0.055 ± 0.026
VRLVQFQKNTDEPMGITLKMNELNHCIVARIMHGGMIHRQGTLHVGDEIREINGISVANQTVEQLQKMLKEMRGSITFKIVP	-0.02 ± 0.031
VRLVQFQKNTDEPMGITLKMNELNHCIVARIMHGGMIHRQGRLHVGDEIREINGISVANQTVEQLQKMLREMRGSITFKIVP	-0.038 ± 0.02
VRLVQFQKNTDEPMGITLKMNELNHCIVARIMHGGMIHRQGTLHVGDENREINGISVANQTVEQLQKMLREMRGSITFKIVP	-0.804 ± 0.2
VRLVQFQKNTDEPMGITLKMNELNHCIVARIMHGGMIHRQGTLHVGDEIREINGISVANQTVEQLQKMLRCMRGSITFKIVP	-0.022 ± 0.034
VRLVQFQKNTDEPMGITLKMNELNHCIVARIMHGGMIHRQGTLHVGDEIREINGISVANQTVEQLQKMLREMRGSITFYIVP	-0.415 ± 0.054
VRLVQFQKNTDEPMGITNKMNELNHCIVARIMHGGMIHRQGTLHVGDEIREINGISVANQTVEQLQKMLREMRGSITFKIVP	-0.918 ± 0.35
VRLVQFQKNTDEPMGITLKMNELNHCIVARIMHGGMIHRQGTLHCGDEIREINGISVANQTVEQLQKMLREMRGSITFKIVP	-0.128 ± 0.079
VRLVQFQKNTDEPMGITLKMNELNHCIVARIMHGGMIHRQGTLHDGDEIREINGISVANQTVEQLQKMLREMRGSITFKIVP	-0.178 ± 0.079
VRLVQFQKNTDEPMGITLKMNELNHCIVARIMHGGMIHRQGTLHVGYEIREINGISVANQTVEQLQKMLREMRGSITFKIVP	-0.832 ± 0.22
VTLVQFQKNTDEPMGITLKMNELNHCIVARIMHGGMIHRQGTLHVGDEIREINGISVANQTVEQLQKMLREMRGSITFKIVP	-0.038 ± 0.038
VRLVQFQKNTDEPMGITLKMNELNHCIVARIMHGGMIHRQGTLHVGDEIREINGISVANQTVEQLQKMLREMRGGITFKIVP	0.001 ± 0.021
VRLVQFQKNTDEPMGITLKMNELNHCIVARIMHGGMIHRQGTLHVGDEIREINGISVANQTVAQLQKMLREMRGSITFKIVP	-0.048 ± 0.024
VRLVQPQKNTDEPMGITLKMNELNHCIVARIMHGGMIHRQGTLHVGDEIREINGISVANQTVEQLQKMLREMRGSITFKIVP	-0.924 ± 0.071

Variant	abundance fitness
VRLVQDQKNTDEPMGITLKMNELNHCIVARIMHGGMIHRQGTLHVGDEIREINGISVANQTVEQLQKMLREMRGSITFKIVP	-0.712 ± 0.054
VRLVQFQKNTDEPMGITLKMNELNHCIVARIIHGGMIHRQGTLHVGDEIREINGISVANQTVEQLQKMLREMRGSITFKIVP	0.175 ± 0.085
VRLVQFQKNTDEPMGITLKMNELNHCIVARIMHGGMIHRQGTLHVGDEIREINGISVANQTVEQLQKMLREMRGSITFKIVY	-0.45 ± 0.17
VRLVQFQKNTDEPMGITLKMNELNHCIVARIMHGGPIHRQGTLHVGDEIREINGISVANQTVEQLQKMLREMRGSITFKIVP	0.095 ± 0.048
VRLVQFQKNTDEPMGITLKMNELNHCIVARIMHGGMIHRQGTLHVGDEIREINGISVANQTVEQLQKMMREMRGSITFKIVP	-0.029 ± 0.033
VRLVQFQKNTDEPMGITLKMNELNHCIVARIMHGGMIHRQGTLHVGDEIREINGISVANQTVEQLQKMFREMRGSITFKIVP	-0.101 ± 0.048
VRLVQFQKNTDEPMGITLKMNELNHCIVARIMMGGMIHRQGTLHVGDEIREINGISVANQTVEQLQKMLREMRGSITFKIVP	-0.026 ± 0.036
VRLVQFQKNTDEPMGITLKMNELNHCIVARNMHGGMIHRQGTLHVGDEIREINGISVANQTVEQLQKMLREMRGSITFKIVP	-0.71 ± 0.14
VRLVQFQKNTMEPMGITLKMNELNHCIVARIMHGGMIHRQGTLHVGDEIREINGISVANQTVEQLQKMLREMRGSITFKIVP	-0.11 ± 0.06
VRLVQFQKNTTEPMGITLKMNELNHCIVARIMHGGMIHRQGTLHVGDEIREINGISVANQTVEQLQKMLREMRGSITFKIVP	0.055 ± 0.049
VRLVQFQKNTDEPMGYTLKMNELNHCIVARIMHGGMIHRQGTLHVGDEIREINGISVANQTVEQLQKMLREMRGSITFKIVP	-0.593 ± 0.11
VRLVQFQKNTDEPMGKTLKMNELNHCIVARIMHGGMIHRQGTLHVGDEIREINGISVANQTVEQLQKMLREMRGSITFKIVP	-1.14 ± 0.24
VRLVMFQKNTDEPMGITLKMNELNHCIVARIMHGGMIHRQGTLHVGDEIREINGISVANQTVEQLQKMLREMRGSITFKIVP	0.065 ± 0.029
VRLVQFQKNTDETMGITLKMNELNHCIVARIMHGGMIHRQGTLHVGDEIREINGISVANQTVEQLQKMLREMRGSITFKIVP	-0.041 ± 0.052
VRLVQFQKNTDEAMGITLKMNELNHCIVARIMHGGMIHRQGTLHVGDEIREINGISVANQTVEQLQKMLREMRGSITFKIVP	-0.065 ± 0.07
VRLVQFQKNTDEDMGITLKMNELNHCIVARIMHGGMIHRQGTLHVGDEIREINGISVANQTVEQLQKMLREMRGSITFKIVP	-0.028 ± 0.085
VRLVQFQKNTDEEMGITLKMNELNHCIVARIMHGGMIHRQGTLHVGDEIREINGISVANQTVEQLQKMLREMRGSITFKIVP	-0.119 ± 0.091
